Measurements published in the supplement of paper PMC9233669.
Fewer inactive variants are shown than the library holds.

How the values were obtained:
[1] = tested on: biotinyl-Val-oxazolone; assay: self-aminoacylation, catalytic enhancement (BVO) (fold over background); higher = more active; k-Seq, kA / k0A0; sequences stand for … in GGGAAUGGAUCCACAUCUACGAAUUC…UUCACUGCAGACUUGACGAAGCUG
In short: (§1)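 Mutagenized RNA pools with a 21-nt variable region (0.43 μM) reacted with each biotinyl-aminoacyl-oxazolone at 2–1250 μM. Reactions ran in 50 μL HEPES/NaCl/KCl/MgCl2/CaCl2 buffer with 5% acetonitrile, pH 6.9–7.0, for 90 minutes at room temperature. Streptavidin-captured RNA was quantified by triplicate qPCR and Illumina sequencing, and per-sequence fraction reacted was fit to a pseudo-first-order model with 1000 bootstraps. Catalytic enhancement is median kA divided by the uncatalyzed rate, the low-activity peak of a bimodal Gaussian fit.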

[2] = tested on: biotinyl-Met-oxazolone; assay: self-aminoacylation, catalytic enhancement (BMO) (fold over background); higher = more active; k-Seq, kA / k0A0; sequences stand for … in GGGAAUGGAUCCACAUCUACGAAUUC…UUCACUGCAGACUUGACGAAGCUG
In short: as §1

[3] = tested on: biotinyl-Ile-oxazolone; assay: self-aminoacylation, catalytic enhancement (BIO) (fold over background); higher = more active; k-Seq, kA / k0A0; sequences stand for … in GGGAAUGGAUCCACAUCUACGAAUUC…UUCACUGCAGACUUGACGAAGCUG
In short: as §1

[4] = tested on: biotinyl-Leu-oxazolone; assay: self-aminoacylation, catalytic enhancement (BLO) (fold over background); higher = more active; k-Seq, kA / k0A0; sequences stand for … in GGGAAUGGAUCCACAUCUACGAAUUC…UUCACUGCAGACUUGACGAAGCUG
In short: as §1

[5] = tested on: biotinyl-Phe-oxazolone; assay: self-aminoacylation, catalytic enhancement (BFO) (fold over background); higher = more active; k-Seq, kA / k0A0; sequences stand for … in GGGAAUGGAUCCACAUCUACGAAUUC…UUCACUGCAGACUUGACGAAGCUG
In short: as §1

[6] = tested on: biotinyl-Trp-oxazolone; assay: self-aminoacylation, catalytic enhancement (BWO) (fold over background); higher = more active; k-Seq, kA / k0A0; sequences stand for … in GGGAAUGGAUCCACAUCUACGAAUUC…UUCACUGCAGACUUGACGAAGCUG
In short: as §1

Row | Sequence | self-aminoacylation [1] | self-aminoacylation [2] | self-aminoacylation [3] | self-aminoacylation [4] | self-aminoacylation [5] | self-aminoacylation [6]
1 | ACACACUUCAAGCAUUCGGUC [Fam1B.1 aminoacylation ribozyme variant] | 1.87 | 1.68 | 1.81 | 1.8 | 1.5 | 2.13
2 | ACACCCUUCAAGCAAUCGGUC [Fam1B.1 aminoacylation ribozyme variant] | 1.02 | 0.897 | 1.01 | 0.984 | 2.12 | 1.59
3 | ACACUCUUCAAGCAAUCGGUC [Fam1B.1 aminoacylation ribozyme variant] | 1.08 | 0.9 | 0.997 | 1.11 | 4.37 | 2.4
4 | ACCACCCUGGUCAUCGAGUGA [Fam2.1 aminoacylation ribozyme variant] | 5.17 | 10.1 | 4.75 | 9.22 | 27.9 | 9.59
5 | ACGACCCUGGUCAUCGAGUGA [Fam2.1 aminoacylation ribozyme variant] | 3.77 | 6.93 | 3.57 | 6.52 | 9.21 | 7.11
6 | ACGUUUACUAAUAGUCGCAAG [Fam3.1 aminoacylation ribozyme variant] | 1.53 | 1.35 | 1.56 | 1.8 | 2.57 | 1.41
7 | ACGUUUGCGAAUAGUCGCAAG [Fam3.1 aminoacylation ribozyme variant] | 1.45 | 1.58 | 1.97 | 1.85 | 3.56 | 2.17
8 | ACGUUUGCUAACAGUCGCAAG [Fam3.1 aminoacylation ribozyme variant] | 1.29 | 1.53 | 1.5 | 1.97 | 4.28 | 1.94
9 | ACGUUUGCUAAUAGGCGCAAG [Fam3.1 aminoacylation ribozyme variant] | 1.61 | 1.35 | 1.94 | 1.67 | 5.88 | 0.911
10 | ACGUUUGCUAAUAGUCACAAG [Fam3.1 aminoacylation ribozyme variant] | 1.39 | 0.95 | 1.34 | 1.15 | 3.82 | 1.82
11 | ACGUUUGCUAAUAGUCGAAAG [Fam3.1 aminoacylation ribozyme variant] | 1.24 | 1.58 | 1.37 | 1.09 | 5.96 | 2.68
12 | ACGUUUGCUAAUAGUCUCAAG [Fam3.1 aminoacylation ribozyme variant] | 1.13 | 0.921 | 1.11 | 1.02 | 3.28 | 2.15
13 | ACGUUUGCUAAUAGUGGCAAG [Fam3.1 aminoacylation ribozyme variant] | 0.741 | 0.75 | 0.853 | 0.804 | 0.738 | 0.59
14 | ACGUUUGCUAAUAGUUGCAAG [Fam3.1 aminoacylation ribozyme variant] | 1.17 | 1.26 | 1.45 | 1.33 | 2.12 | 1.15
15 | ACGUUUGCUAUUAGUCGCAAG [Fam3.1 aminoacylation ribozyme variant] | 1.21 | 1.67 | 1.5 | 1.18 | 1.31 | 2.22
16 | ACUACCCUGCUCAUCGAGUGA [Fam2.1 aminoacylation ribozyme variant] | 1.85 | 1.45 | 1.37 | 2.44 | 2.39 | 1.93
17 | ACUACCCUGGACAUCGAGUGA [Fam2.1 aminoacylation ribozyme variant] | 2.92 | 7.03 | 2.55 | 6.83 | 20.6 | 7.37
18 | ACUACCCUGGGCAUCGAGUGA [Fam2.1 aminoacylation ribozyme variant] | 4.49 | 7.11 | 3.65 | 7.95 | 41.4 | 6.86
19 | ACUACCCUGGUCAACGAGUGA [Fam2.1 aminoacylation ribozyme variant] | 3.82 | 5.53 | 3.48 | 5.55 | 17 | 6.49
20 | ACUACCCUGGUCAUCAAGUGA [Fam2.1 aminoacylation ribozyme variant] | 1.67 | 3.19 | 1.67 | 2.37 | 5.04 | 2.76
21 | ACUACCCUGGUCAUCGAGCGA [Fam2.1 aminoacylation ribozyme variant] | 1.94 | 1.91 | 2.04 | 1.95 | 2.05 | 1.82
22 | ACUACCCUGGUCAUCGAGUAA [Fam2.1 aminoacylation ribozyme variant] | 3.99 | 9.42 | 3.33 | 8.99 | 20.1 | 8
23 | ACUACCCUGGUCAUCGAGUGU [Fam2.1 aminoacylation ribozyme variant] | 20.3 | 58.6 | 16.3 | 59.7 | 409 | 53.1
24 | ACUACCCUGGUCAUCGCGUGA [Fam2.1 aminoacylation ribozyme variant] | 12.1 | 17.9 | 8.88 | 21.5 | 163 | 19.3
25 | ACUACCCUGGUCAUCGUGUGA [Fam2.1 aminoacylation ribozyme variant] | 2.33 | 4.14 | 1.58 | 3.39 | 24.4 | 3.83
26 | ACUACCCUGGUCAUCUAGUGA [Fam2.1 aminoacylation ribozyme variant] | 3.97 | 7.5 | 3.86 | 7.72 | 63.1 | 7.62

Row | Sequence | self-aminoacylation [1] | self-aminoacylation [2] | self-aminoacylation [3] | self-aminoacylation [4] | self-aminoacylation [5] | self-aminoacylation [6]
27 | ACUACCCUGGUCAUUGAGUGA [Fam2.1 aminoacylation ribozyme variant] | 4.05 | 7.75 | 4.12 | 8.8 | 34 | 8.89
28 | ACUACCCUGGUCCUCGAGUGA [Fam2.1 aminoacylation ribozyme variant] | 2.25 | 4.59 | 2.6 | 3.84 | 17.6 | 4.3
29 | ACUACCCUGGUCGUCGAGUGA [Fam2.1 aminoacylation ribozyme variant] | 1.19 | 1.49 | 1.17 | 1.95 | 6.66 | 0.701
30 | ACUACCCUGGUGAUCGAGUGA [Fam2.1 aminoacylation ribozyme variant] | 3.6 | 6.46 | 4.03 | 7.61 | 28 | 9.48
31 | ACUACCUUGGUCAUCGAGUGA [Fam2.1 aminoacylation ribozyme variant] | 3.23 | 3.77 | 2.96 | 4.02 | 10.5 | 5.82
32 | ACUCACCGAGGUCAUCGGGUG [Fam2.2 aminoacylation ribozyme variant] | 5.07 | 6.05 | 4.34 | 7.63 | 41.6 | 8.16
33 | ACUCACCUAGAUCAUCGGGUG [Fam2.2 aminoacylation ribozyme variant] | 3.13 | 2.99 | 2.9 | 3.38 | 26.9 | 5.49
34 | ACUCACCUAGGACAUCGGGUG [Fam2.2 aminoacylation ribozyme variant] | 4.87 | 3.82 | 3.36 | 4.64 | 20.1 | 4.88
35 | ACUCACCUAGGUCAACGGGUG [Fam2.2 aminoacylation ribozyme variant] | 2.22 | 2.67 | 1.94 | 2.29 | 8.54 | 3.14
36 | ACUCACCUAGGUCAGCGGGUG [Fam2.2 aminoacylation ribozyme variant] | 3.86 | 4.16 | 3.56 | 4.43 | 31.4 | 4.54
37 | ACUCACCUAGGUCAUAGGGUG [Fam2.2 aminoacylation ribozyme variant] | 1.36 | 1.57 | 1.31 | 1.39 | 1.46 | 1.58
38 | ACUCACCUAGGUCAUCGCGUG [Fam2.2 aminoacylation ribozyme variant] | 6.93 | 7.39 | 5.51 | 10.6 | 70 | 9.66
39 | ACUCACCUAGGUCAUCGGGUU [Fam2.2 aminoacylation ribozyme variant] | 5.06 | 8.19 | 5.92 | 11.3 | 31.3 | 6.68
40 | ACUCACCUAGGUCUUCGGGUG [Fam2.2 aminoacylation ribozyme variant] | 4.96 | 4.6 | 4.2 | 6.01 | 29.7 | 6.33
41 | ACUCACCUAGUUCAUCGGGUG [Fam2.2 aminoacylation ribozyme variant] | 3.36 | 3.46 | 2.87 | 3.86 | 19.7 | 3.85
42 | ACUCGCCUAGGUCAUCGGGUG [Fam2.2 aminoacylation ribozyme variant] | 6.73 | 9.99 | 6.84 | 11 | 62.9 | 10.9
43 | ACUUCCCUGGUCAUCGAGUGA [Fam2.1 aminoacylation ribozyme variant] | 5.69 | 9.66 | 4.96 | 9.49 | 41.8 | 12.1
44 | AGACACCUAGGUCAUCGGGUG [Fam2.2 aminoacylation ribozyme variant] | 2.32 | 3.07 | 3.01 | 3.29 | 20.6 | 4.31
45 | AGAUUUGCUAAUAGUCGCAAG [Fam3.1 aminoacylation ribozyme variant] | 1.8 | 1.58 | 1.91 | 2.39 | 2.47 | 1.88
46 | AGCCACCUAGGUCAUCGGGUG [Fam2.2 aminoacylation ribozyme variant] | 6.3 | 7.16 | 6.24 | 8.17 | 81.6 | 10.3
47 | AGGCUUGCUAAUAGUCGCAAG [Fam3.1 aminoacylation ribozyme variant] | 1.96 | 2.14 | 2.17 | 2.31 | 3.69 | 2.08
48 | AGGUUUGAUAAUAGUCGCAAG [Fam3.1 aminoacylation ribozyme variant] | 1.54 | 1.57 | 1.55 | 1.67 | 3.51 | 1.8
49 | AGGUUUGCUAAUAAUCGCAAG [Fam3.1 aminoacylation ribozyme variant] | 0.949 | 0.753 | 0.899 | 0.822 | 1.91 | 0.725
50 | AGGUUUGCUAAUAGACGCAAG [Fam3.1 aminoacylation ribozyme variant] | 0.752 | 0.529 | 0.608 | 0.594 | 0.835 | 0.609
51 | AGGUUUGCUAAUAGGCGCAAG [Fam3.1 aminoacylation ribozyme variant] | 0.734 | 0.736 | 0.85 | 0.626 | 1.16 | 1.18
